Measured values reported in paper PMC8770954.

Tests used:
Assay in all cases: SPR; imaging SPR (IBIS MX96); IgG immobilised on a carboxymethyldextran sensor (CMD200M) by carbodiimide chemistry with a Continuous Flow Microspotter, printed at 300 and 150 nM; soluble receptor as analyte from 20 uM, 1:3 over 8 points; 5 min association and 5 min dissociation; equilibrium KD (Scrubber 2)
[1] = target: Rh7B2 IgG1 (rhesusized variant of human 7B2) (rhesus macaque (Macaca mulatta))
[2] = target: RhDH677.3 IgG1 (rhesusized variant of human DH677.3) (rhesus macaque (Macaca mulatta))
[3] = target: RhDH827 IgG1 (rhesusized variant of human DH827) (rhesus macaque (Macaca mulatta))
Sequence of RhDH827 IgG1 (rhesusized variant of human DH827) (rhesus macaque (Macaca mulatta)) (heavy, as listed by the source, chain 1 of 2): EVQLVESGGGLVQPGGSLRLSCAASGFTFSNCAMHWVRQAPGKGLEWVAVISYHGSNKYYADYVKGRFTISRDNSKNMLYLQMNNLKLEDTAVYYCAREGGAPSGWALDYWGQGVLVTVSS
Sequence of RhDH827 IgG1 (rhesusized variant of human DH827) (rhesus macaque (Macaca mulatta)) (light, as listed by the source, chain 2 of 2): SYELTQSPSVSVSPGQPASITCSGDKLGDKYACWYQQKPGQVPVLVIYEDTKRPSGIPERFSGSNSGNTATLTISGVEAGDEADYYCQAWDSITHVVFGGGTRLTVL

Sequence of human FcγRIIIa (F158) (P08637 17-208): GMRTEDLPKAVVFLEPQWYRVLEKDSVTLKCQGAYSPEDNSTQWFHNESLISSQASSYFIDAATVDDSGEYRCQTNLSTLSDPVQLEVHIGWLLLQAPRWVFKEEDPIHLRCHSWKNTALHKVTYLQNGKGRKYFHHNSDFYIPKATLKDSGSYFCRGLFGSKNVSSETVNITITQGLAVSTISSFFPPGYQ
Sequence of RhDH677.3 IgG1 (rhesusized variant of human DH677.3) (rhesus macaque (Macaca mulatta)) (heavy, as listed by the source, chain 1 of 2): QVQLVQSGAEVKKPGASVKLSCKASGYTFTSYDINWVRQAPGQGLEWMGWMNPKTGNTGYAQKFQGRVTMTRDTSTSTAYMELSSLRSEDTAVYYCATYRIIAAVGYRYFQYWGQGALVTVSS
Sequence of RhDH677.3 IgG1 (rhesusized variant of human DH677.3) (rhesus macaque (Macaca mulatta)) (light, as listed by the source, chain 2 of 2): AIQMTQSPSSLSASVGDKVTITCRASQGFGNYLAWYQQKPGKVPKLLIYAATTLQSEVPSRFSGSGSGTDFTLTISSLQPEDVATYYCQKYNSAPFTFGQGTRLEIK
Sequence of Rh7B2 IgG1 (rhesusized variant of human 7B2) (rhesus macaque (Macaca mulatta)) (heavy, as listed by the source, chain 1 of 2): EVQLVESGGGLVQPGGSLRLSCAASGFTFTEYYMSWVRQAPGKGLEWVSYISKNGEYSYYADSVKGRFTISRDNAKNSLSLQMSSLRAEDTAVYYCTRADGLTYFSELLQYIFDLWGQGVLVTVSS
Sequence of Rh7B2 IgG1 (rhesusized variant of human 7B2) (rhesus macaque (Macaca mulatta)) (light, as listed by the source, chain 2 of 2): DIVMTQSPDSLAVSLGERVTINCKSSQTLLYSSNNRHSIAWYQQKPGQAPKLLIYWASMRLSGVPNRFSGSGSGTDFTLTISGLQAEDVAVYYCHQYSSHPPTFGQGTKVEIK

Substance	Kd [1]	Kd [2]	Kd [3]
human FcγRIIb (from UniProt P31994 43-217) (receptor)	8.5 µM	7.9 µM	–
rhesus macaque FcγRIIa-1 (receptor)	6 µM	4.7 µM	5.7 µM
rhesus macaque FcγRIIa-2 (receptor)	5.5 µM	4.9 µM	5.5 µM
rhesus macaque FcγRIIa-4 (receptor)	7.7 µM	6.2 µM	6.9 µM

Stronger by Kd [1], values ahead:

Kd [1]	Kd [2]	Kd [3]	Substance
3.8 µM	3.8 µM	4.1 µM	human FcγRIIIa (F158) (from UniProt P08637 17-208) (receptor)
4.4 µM	–	3.7 µM	human FcγRIIa (H131) (from UniProt P12318 34-217) (receptor)
3.7 µM	3.7 µM	3.7 µM	rhesus macaque FcγRIIb-1 (receptor)
